# In patent publication US20110190483, “Stimulus-Responsive Apta Chelamers” (The Administrators of the Tulane Educational Fund, published 2011):
# Experiments:
# Conditions in all cases: tags: Sigma Aldrich, from bovine pancreas; label: fluorescein on 5'-terminal dT; intramolecular antiparallel G4
# [1] = target: T1, trypsin (Bos taurus, UniProt P00760 P00760:24-246); experiment: FP; low salt: 5 mM KCl, 25 mM Hepes pH 7.4; +/-0.3e-6
# Experimental: The results of FIG. 23 show fluorescence anisotropy titrations of AC 1 and negative control ODN 4 (2 nM), first exposed to quadruplex forming conditions followed by incubation with increasing concentrations of trypsin. These experiments were conducted under low-salt conditions (5 mM KCl, 25 mM Hepes, pH 7.4. The raw data is depicted by circles for AC 1 and diamonds (♦) for ODN 4. The lines represent non-linear fits to equation 2 (R²=0.99 for AC 1 and 0.98 for ODN 4).
# These findings are consistent with the fact that bovine trypsin is positively charged at pH=7.4 (pI of bovine trypsin is=10.5) and thus can potentially associate with the negatively charged ODN backbone, through non-specific interactions, under low-salt conditions.
# [2] = target: T1, trypsin; experiment: FP; preformed quadruplex, 25 mM KCl (20 mM elsewhere), 200 mM NaCl, 25 mM Hepes pH 7.4, 25 C; binding through small-molecule arms
# Experimental: (§1) The preformed quadruplexes were then incubated with increasing concentrations of trypsin at 25° C. (25 mM KCl, 200 mM NaCl, 25 mM Hepes, pH 7.4) for 30 min. Preliminary fluorescence anisotropy studies were conducted to ascertain that equilibrium was reached after 30 min and that there was no significant quenching of the fluorescein emission. The anisotropy associated with the fluorescein emission was followed at 525 nm (excitation at 495 nm). The resultant binding isotherms (FIG. 14) were fitted using non-linear regression to a 1:1 binding stoichiometry. […] This dissociation constant is attributed to non-specific interactions between bovine trypsin and ODN 4, since trypsin (pI=10.5) is positively charged at pH=7.4 and thus can potentially associate with the negatively charged DNA backbone. Support for such non-specific interactions comes from incubation of trypsin with ODN 4 where the concentration of salts were decreased to only 5 mM KCl, 25 mM Hepes, pH 7.4 (see, e.g., FIG. 23).
# (§2) Immediately prior to each fluorescence polarization experiment, fresh stock solutions of trypsin were made in Hepes buffer (20 mM KCl, 200 mM NaCl, 25 mM Hepes, pH 7.4). Concentration of the trypsin in the stock solutions were determined using ultra-violet absorbance at 280 nm (ε=37669 M⁻¹cm⁻¹).
# [3] = target: T1, trypsin; experiment: FP; 25 mM KCl, 200 mM NaCl, 25 mM Hepes pH 7.4, 25 C; benzamidine arm only
# Experimental: as §1, §2
# [4] = target: T1, trypsin; experiment: FP; 25 mM KCl, 200 mM NaCl, 25 mM Hepes pH 7.4, 25 C; iodophenylthiourea arm only
# Experimental: as §1, §2
# T1 sequence (P00760 24-246, one chain of several): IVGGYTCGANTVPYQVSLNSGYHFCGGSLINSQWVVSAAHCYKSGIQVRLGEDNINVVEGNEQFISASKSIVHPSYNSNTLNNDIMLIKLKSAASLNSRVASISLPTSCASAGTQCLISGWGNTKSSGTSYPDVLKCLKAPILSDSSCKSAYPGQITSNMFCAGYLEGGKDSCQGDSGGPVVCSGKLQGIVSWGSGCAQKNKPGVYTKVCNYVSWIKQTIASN
binder,measurement,setting,value
"TTGGTTGGTGTGGTTGGT (structured_DNA, 5'-benzamidine arm via C10 spacer, 3'-iodophenylthiourea arm via C6 spacer) [AC 1 (ODN 1, Formula 3)]",Kd,[1],2.8 µM
same,Kd,[2],0.81 µM
"TTGGTTGGTGTGGTTGGT (structured_DNA, 5'-benzamidine arm via C10 spacer, no 3' arm) [ODN 2 (Formula 4)]",Kd,[3],29 µM
"TTGGTTGGTGTGGTTGGT (structured_DNA, 3'-iodophenylthiourea arm via C6 spacer, no 5' arm) [ODN 3 (Formula 5)]",Kd,[4],90 µM
